Results reported in patent US20070218504A1, “HUMAN LEPTIN-DERIVED POLYPEPTIDES AND USES THEREOF” (UNIVERSITY OF PITTSBURGH, priority 2006, published 2007).
“Also recorded” adds a separate entry of the source.

Assays:
[1] = test system: tyrosine phosphorylation of STAT3; test: Leptin-induced tyrosine phosphorylation of STAT3 in HEK293 cells over-expressing OB-Rb in the presence of CRP (Western blot); assay type: cell-based, human; conditions: murine/mouse leptin; HEK293 OB-Rb
Experimental: To determine if the interaction between CRP and leptin dampens the cellular actions of leptin, the ability of leptin to stimulate tyrosine phosphorylation of STAT3 and PI3-kinase activity was assessed in the presence of CRP in vitro. HEK293 cells over-expressing OB-Rb were serum starved for 2 hours before addition of leptin and CRP (CHEMICON or EMD Biosciences). Leptin, in the presence or absence of CRP, was pre-incubated in μ-MEM (with additional 1 mM Ca^2+) for 30 minutes at 37° C. before being applied to the cells. After a 30-minute incubation with leptin, the cells were harvested in lysis buffer (18). The resultant protein extract was subjected to a Western blot analysis using an anti-phospho-STAT3 specific antibody (Cell Signaling, Beverly, Mass.). For studies involving primary hypothalamic neurons, the hypothalamus from rats was surgically isolated immediately after euthanasia, and placed in the DMEM for incubation with leptin in the presence or absence of CRP.

mouse leptin = target: T1, mouse leptin (Mus musculus, UniProt P41160); test: Immuno-precipitation assay of direct binding of rat CRP and mouse leptin; conditions: leptin/CRP mixture and rat serum; Western blot with anti-CRP
T1 construct: purchased AF Parlow of NHPP, Torrance, CA
Experimental: To explore a physical interaction between CRP and leptin, the direct binding of these proteins was determined by an immuno-precipitation assay. Rat CRP was purified from fresh rat serum to >95% purity employing a previously established affinity-purification protocol (20). […] The purified human- and rat-CRP proteins were pre-mixed with recombinant human and mouse leptin, respectively, before addition of antibodies specific for human- and mouse-leptin. The concentrations of CRP and leptin in the precipitation reaction were all within the physiological ranges that have been observed in humans or rats (11 & 15). In parallel experiments, recombinant leptin also was pre-mixed with human- or rat-serum to allow for direct interaction prior to immuno-precipitation. The protein precipitates obtained were subjected to Western blot assays using specific anti-CRP antibodies.

[2] = test system: insulin-stimulated PI3-kinase activity; test: Insulin-stimulated PI3-kinase activity in 3T3-L1 adipocytes; assay type: cell-based

T1 sequence (P41160 22-167): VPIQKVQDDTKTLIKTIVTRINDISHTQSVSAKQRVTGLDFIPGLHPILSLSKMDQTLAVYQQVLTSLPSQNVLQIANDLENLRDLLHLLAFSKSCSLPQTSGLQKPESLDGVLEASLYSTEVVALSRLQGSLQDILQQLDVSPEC

co-precipitation of CRP with anti mouse-leptin antibody (mouse leptin): could bring down rat CRP
B1: rat CRP: rat C-reactive protein purified from fresh rat serum to >95% purity (protein)
chain: HEDMSKQAFVFPGVSATAYVSLEAESKKPLEAFTVCLYAHADVSRSFSIFSYATKTSFNEILLFWTRGQGFSIAVGGPEILFSASEIPEVPTHICATWESATGIVELWLDGKPRVRKSLQKGYIVGTNASIILGQEQDSYGGGFDANQSLVGDIGDVNMWDFVLSPEQINAVYVGRVFSPNVLNWRALKYETHGDVFIKPQLWPLTDCCES
effect of CRP on murine leptin-induced tyrosine phosphorylation of STAT3 [1]: attenuating effects; also recorded: attenuate
effect on insulin-stimulated PI3-kinase activity [2]: did not block
